Here are results for 13 molecules from patent publication US20260234247A1 (published 2026).

Test [1] addresses T1, Biotinylated LILRB2 (UniProt Q8N423 22-460, limits assumed, biotinylated (sites not given)).
T1 construct: also called biotinylated-LILRB2 protein
Nature of the test: epitope binning ELISA; coated antibody 1 ug/ml, biotinylated LILRB2; competitor LK-RB2-2 at 20 ug/ml. For orientation: ELISA stands for enzyme-linked immunosorbent assay.

Test [2] concerns the target T2, human LILRB1-his (human, UniProt Q8NHL6 24-458, limits assumed).
T2 construct: Analyte of the Biacore run; not shown: His tag
The test can be described thus: SPR (Biacore 8K), antibody captured via Fc, LILRB1-his as analyte, 1:1 model. On the technique in general: SPR reads the build-up and loss of mass on a sensor chip optically.

The target in test [3] is T1, Biotinylated LILRB2. Nature of the test: epitope binning ELISA; coated antibody 1 ug/ml, biotinylated LILRB2; competitor LK-RB2-3 at 20 ug/ml.
Description: (§1) Binding epitope of a subset of anti-LILRB1 and anti-LILRB2 antibodies was analyzed by epitope binning ELISA. Briefly, a panel of testing antibodies were coated onto ELISA plate. 50 ul/well Biotinylated LILRB1 or LILRB2 and 50 ul/well of competing antibodies were added to the coated plate and incubated at 37° C. for 1 hour. After Streptavidin-HRP (1:5000) incubation and TMB development, the plates were read at 450 nm using Molecular device spectra max plus384.
The target of test [4] is T1, Biotinylated LILRB2. The test can be described thus: epitope binning ELISA; coated antibody 1 ug/ml, biotinylated LILRB2; competitor hz73D1.v1 at 20 ug/ml.
Description: as §1
Test [5] addresses T3, human LILRB2-his (human, UniProt Q8N423 22-460, limits assumed).
T3 construct: Analyte of the Biacore run; not shown: His tag
Nature of the test: SPR (Biacore 8K), antibody captured via Fc, LILRB2-his as analyte, 1:1 model.

The target of test [6] is T1, Biotinylated LILRB2. The test can be described thus: epitope binning ELISA; coated antibody 1 ug/ml, biotinylated LILRB2; competitor J19.h1 at 20 ug/ml.
Description: as §1
Test [7] concerns the target T1, Biotinylated LILRB2. The test can be described thus: epitope binning ELISA; coated antibody 1 ug/ml, biotinylated LILRB2; competitor LK-RB2-24 at 20 ug/ml.
Description: as §1
The target of test [8] is T1, Biotinylated LILRB2. Nature of the test: epitope binning ELISA; coated antibody 1 ug/ml, biotinylated LILRB2; competitor LK-RB2-15 at 20 ug/ml.
Description: as §1
Test [9] addresses T1, Biotinylated LILRB2. The test can be described thus: epitope binning ELISA; coated antibody 1 ug/ml, biotinylated LILRB2; competitor LK-RB2-14 at 20 ug/ml.
Description: as §1
Test [10] concerns the target T4, Cynomolgus LILRB2 on CHOK1 cells (cynomolgus).
T4 construct: whole, on cells; also called CHOK1-Cyno LILRB2
Nature of the test: flow cytometry on CHOK1-cyno LILRB2 cells. (In flow cytometry, cells or beads pass a laser one at a time.)
Excerpt: Anti-LILRB1 and anti-LILRB2 antibodies were also screened for their ability to bind rhesus macaque LILRB1 (Kactusbio, LLC: LIL-CM1B1 and LIL-CM1B3), cynomolgus LILRB1 (Kactusbio, LLC: LIL-CM1B2) and cynomolgus LILRB2 (Kactusbio, LLC: LIL-CM1B5) by ELISA and flow cytometry.

Test [11] concerns the target T5, human LILRA1 (human, UniProt O75019 17-461, limits assumed).
T5 construct: bought protein coated for ELISA; also called hLILRA1
The test can be described thus: ELISA, OD450, antibody at 200 nM; + = 2-fold over ISO.
Description: To further confirm binding affinity, selected clones were assayed in ELISA or FACS in a range of testing concentrations.

In test [12] the target is T6, Rhesus LILRB1 (F7H3G7) on CHOK1 cells (rhesus macaque).
T6 construct: whole, on cells; also called CHOK1-Rhesus LILRB1 (F7H3G7)
Nature of the test: flow cytometry on CHOK1-rhesus LILRB1 (F7H3G7) cells.

Positions count from the first letter of the chain named.

T2 sequence (Q8NHL6 24-458 limits assumed): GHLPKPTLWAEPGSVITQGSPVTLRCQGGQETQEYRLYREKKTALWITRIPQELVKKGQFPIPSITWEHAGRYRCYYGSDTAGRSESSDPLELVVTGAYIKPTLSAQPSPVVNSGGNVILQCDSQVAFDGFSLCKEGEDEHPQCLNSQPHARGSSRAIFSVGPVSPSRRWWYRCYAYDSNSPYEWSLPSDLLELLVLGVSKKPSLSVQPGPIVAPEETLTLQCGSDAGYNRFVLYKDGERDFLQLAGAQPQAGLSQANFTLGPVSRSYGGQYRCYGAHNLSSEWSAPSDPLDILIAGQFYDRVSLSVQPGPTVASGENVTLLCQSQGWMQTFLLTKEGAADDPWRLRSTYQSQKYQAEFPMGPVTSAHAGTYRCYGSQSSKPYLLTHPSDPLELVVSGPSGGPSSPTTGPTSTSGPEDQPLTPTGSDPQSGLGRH
T1 sequence (Q8N423 22-460 limits assumed): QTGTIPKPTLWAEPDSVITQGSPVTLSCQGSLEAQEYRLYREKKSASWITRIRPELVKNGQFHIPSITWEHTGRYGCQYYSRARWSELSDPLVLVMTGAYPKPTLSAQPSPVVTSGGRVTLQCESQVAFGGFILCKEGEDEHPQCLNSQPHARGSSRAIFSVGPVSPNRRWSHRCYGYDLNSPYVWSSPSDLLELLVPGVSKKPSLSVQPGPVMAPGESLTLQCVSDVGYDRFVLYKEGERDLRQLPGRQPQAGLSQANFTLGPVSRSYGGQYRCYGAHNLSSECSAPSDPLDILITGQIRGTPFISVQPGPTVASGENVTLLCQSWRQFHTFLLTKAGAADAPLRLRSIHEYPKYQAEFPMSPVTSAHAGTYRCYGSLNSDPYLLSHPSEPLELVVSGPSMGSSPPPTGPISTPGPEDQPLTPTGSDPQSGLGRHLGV
T3 sequence (Q8N423 22-460 limits assumed): as above
T5 sequence (O75019 17-461 limits assumed): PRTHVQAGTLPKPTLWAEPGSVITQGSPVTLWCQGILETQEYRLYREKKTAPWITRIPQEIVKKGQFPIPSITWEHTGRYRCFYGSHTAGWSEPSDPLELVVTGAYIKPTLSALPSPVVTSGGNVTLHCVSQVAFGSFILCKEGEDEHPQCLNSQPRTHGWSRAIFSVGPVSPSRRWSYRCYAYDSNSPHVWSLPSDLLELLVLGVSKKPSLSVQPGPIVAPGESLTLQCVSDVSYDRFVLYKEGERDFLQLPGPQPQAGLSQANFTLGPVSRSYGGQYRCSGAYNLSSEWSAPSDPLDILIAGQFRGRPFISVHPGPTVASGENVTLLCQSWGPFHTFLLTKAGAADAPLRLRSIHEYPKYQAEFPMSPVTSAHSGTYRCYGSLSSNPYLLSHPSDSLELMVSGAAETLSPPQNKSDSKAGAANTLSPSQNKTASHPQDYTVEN

B1: LK-RB2-24 (antibody, human IgG4 S228P, kappa, V domains shown)
VH: QIQLVQSGPEVKKPGETVKISCKASGYTFTTYGMSWVKQAPGKGLKWMGWLNIYSGVPAYADDFKGRFAFSLESSASTAYLQINNLKNEDTATYFCARRENYDGYGMDYWGQGTSVTVSS
VL: DIVMTQSPATLSVTPGDRVSLSCRASQSISDYLHWYQQKSHESPRLLIKYASQSISGIPSRFSGSGSGSDFTLSINSVEPEDVGVYYCQNGHSFPYTFGGGTKLEIKR
notes: Anti-LILRB2 antibody from mouse hybridoma; parental antibody of LK-RB2-24.h1 to h3
Turning to B1, the Inhibition % in test [1] is 48.4%; in [3], 25.9%; in test [4], 22.1%; in [6], -4.04%; in test [7] it was 95.7%; in [8] it was 95.2%. The Inhibition % in test [9] was determined as 91.1%. Further, the Kd was determined as 21.1 nM in [2] and 0.51 nM in test [5]. In addition, the koff in test [2] was determined as 0.00406 s⁻¹; in [5], 0.000484 s⁻¹. Further, the figures for the kon in test [2] and in test [5] were 192000 M⁻¹ s⁻¹ and 950000 M⁻¹ s⁻¹, respectively.

B2: LK-RB2-3 (antibody, human IgG4 S228P, kappa, V domains shown)
VH: QLQLQQSDAELVKPGASVKISCKVSGYSFTDHTIHWMKQRPEQGLEWIGYIYPRDGSTKENEKFTGKATLTADKSSSTAYMQLTSLTSEDSAVYFCTGSGFDYWGQGTSLTVSS
VL: DIKMTQSPSSMYASLGERVTITCKASQDIKSYLSWFQQKPGKSPKTLIYRANRLVDGVPSRFSGSGSGQDYSLTINSLEYEDMEIYYCLQYDEFPYTFGGGTKLEIKR
notes: Anti-LILRB2 antibody from mouse hybridoma
Regarding B2, the Inhibition % was determined as 96.9% in test [1]; 96.7% in [3]; 33.7% in test [4]; 9.71% in test [6]; 32.2% in test [7]; 5% in test [8]. Besides, in [9], the Inhibition % came out at 24.9%.

B3: LK-RB2-47 (antibody, human IgG4 S228P, kappa, V domains shown)
VH: QVQLKQSGPGLVQPSQSLSITCTVSGFSLISYGVHWVRQSPGKGLEWLGVIWSGGSTDYNAAFISRLSISKDNSKSQVFFKMNSLQADDTAIYYCARSFHYHGSTFDYWGQGTTLTVSS
VL: DIQMTQTTSSLSASLGDRVIISCRASQDINNYLNWYQQKPDGTVKLLIYFTSRLHSGVPSSFSGSGSGTDYSLTINNLEQEDIATYFCQQVNTLPYTFGGGTKLEIKR
notes: Anti-LILRB2 antibody
In [10], B3 returned an EC50 of 0.4 nM.

B4: hz73D1.v1 (antibody, human IgG4 S228P, kappa, V domains shown)
VH: QVQLVQSGAEVKKPGASVKVSCKASGYTFTDYYINWVRQAPGQGLEWMGNVNPNDGGTTYNQKFKGRVTMTTDTSTSTAYMELRSLRSDDTAVYYCARREIYFYGTIYYYAMDYWGQGTLVTVSS
VL: DIQLTQSPSFLSASVGDRVTITCRASESVDYYGNSFMYWYQQKPGKAPKLLIYFASNLESGVPSRFSGSGSGTEFTLTISSLQPEDFATYYCQQNNEDPWTFGGGTKVEIKR
As to B4, the Inhibition % in test [1] was determined as 97.8%; in test [3] it was 65.3%; in test [4], 96.8%; in test [6], 74.8%; in [7] it was 22.4%; in test [8] it was 6.43%. Further, the Inhibition % in test [9] was 91.8%.

B5: LK-RB1-48 (antibody, human IgG4 S228P, kappa, V domains shown)
VH: EVKLVESGGGLVQPGGSLKLSCAASGFTFSDYYMYWVRQTPEKRLEWVAYISNGGGISFYPDTVKGRFTISRDNAKNTLYLQMSRLKSEDTAIYYCASATKEVGAMDYWGQGTSVTVSS
VL: DIVMTQSQKFLSTTVGDRVSITCKASQNVGTAVAWYQQKPGQSPKILIYSASNRYTGVPDRFTGSGSGTDFTLTISNMQSEDLADYFCQQYSSYRTFGGGTKLEIKR
notes: anti-LILRB1 clone from mouse hybridoma
For B5, the binding result in test [11] is “binds”.

B6: LK-RB1-55 (antibody, human IgG4 S228P, kappa, V domains shown)
VH: B5 VH with G56D, S58T, K76R, N77S, K101T, Y108H
VL: B5 VL with L11M, Q42K, I46L, S50A, K102N
notes: as for B5
With B6, the binding result in [11] was “binds”.

B7: 15G8 (antibody, human IgG4 S228P, kappa, V domains shown)
VH: DVQLQGSGPGLVKPSETLSLTCSVTGYSITSGYYWNWIRQFPGKKLEWMGYISYDGSNNYNPSLKNRITISRDTSKNQFSLKLNSVTAADTATYYCAHGYSYYYAMDAWGQGTSVTVSS
VL: DIQMTQSPSSLSASVGDRVTITCRTSQDISNYLNWYQQKPGKAVKLLISYTSRLHSGVPSRFSGSGSGTDYTLTISSLQPEDFATYYCQQGNTLPTFGQGTKLEIKR
On to B7, for which the EC50 in [12] was 760 nM; in test [10], 2.15 nM.

B8: J19.h1 (antibody, human IgG4 S228P, kappa, V domains shown)
VH: QITLKESGPTLVKPTQTLTLTCTFSGFSLNTYAMGVSWIRQPPGKALEWLASIWWNGNKYNNPSLKSRLTVTKDTSKNQVVLTMTNMDPVDTATYYCAHSRIIRFTDYVMDAWGQGTLVTVSS
VL: DIQMTQSPSSLSTSVGDRVTITCRASEDIYNDLAWYQQKPGKAPKLLIYNANSLHTGVASRFSGSGSGTDFTFTISSLQPEDVATYFCQQYYDYPLTFGQGTKLEIKR
Turning to B8, the Inhibition % in test [1] is 97.8%; in test [3] it was 93.9%; in test [4] it was 95.9%; in test [6], 92.5%; in test [7], 44.5%; in test [8], 17.5%. The Inhibition % in [9] came out at 96.1%.

B9: LK-RB2-2 (antibody, human IgG4 S228P, kappa, V domains shown)
VH: DVKLEESGEGLVKPGGSLKLSCAASGFTFSSYAMSWVRQTPEKRLEWVAYISSGGDYFHYADTVKGRFTISRDNARNTLYLQMSSLKSEDTAMYYCTREGAHYDSSYLAWFAHWGQGTLVTVSA
VL: DIQMTQSPASLSVSVGETVTITCRASENIYSNLAWYQQRQGKSPQLLVYAATNLADGVPSRFSGSGSGTQYSLKINSLQSEDFGSYYCQQFWDNPLTFGAGTKLELKR
notes: Anti-LILRB2 antibody from mouse hybridoma; parental antibody of LK-RB2-2.h1 to h3
Turning to B9, the Inhibition % in [1] turned out to be 97.8%; in test [3], 93.9%; in [4], 92.8%; in test [6], 69.6%; in [7], 17.7%; in test [8], 13.6%. In addition, the Inhibition % in test [9] is 89.4%. Besides, in [5], binding was characterised by a dissociation constant (Kd) of 0.168 nM. The koff in test [5] is 0.000134 s⁻¹. Moreover, in test [5], the association rate constant (kon) was 800000 M⁻¹ s⁻¹.

B10: LK-RB2-8 (antibody, human IgG4 S228P, kappa, V domains shown)
VH: QIQLVQSGPELKKPGETVKISCKASGYSFASYGMGWVKQAPGKGLKWLGWINTHSGVPTYADDFKGRFAFSLETSASTAYLQINNLKNEDTATYFCAHYGRPWFPYWGQGTLVTVSA
VL: DIQMTQSPASLSASVGETVTITCRTSENIYSYLAWYQQKQGKSPQLLVYNAKSLAEGVPSRFSGSGSGTQFSLRINSLQPEDFGTYYCQQHYETPLTFGAGTKLELKR
notes: Anti-LILRB2 antibody
Take B10: the EC50 in test [10] was 19.8 nM.

B11: LK-RB2-16 (antibody, human IgG4 S228P, kappa, V domains shown)
VH: B10 VH with S28T, A30T, S31T, G42E, L48M, H54N, V57A, A61G, P105A
VL: B10 VL with T25A, Q37H, K42E, S53T, R74K, T85S, Q90H, E93N, T94I
notes: Anti-LILRB2 antibody
Take B11: in [10], the EC50 is 5.45 nM.

B12: LK-RB1-39 (antibody, human IgG4 S228P, kappa, V domains shown)
VH: EVQLQQSGAELVRPGASVKLSCTASGFNIKDDYVHWVNQRPEQGLEWIGWIDPENGDTGYASKFQDKATITADTSSNTAYLHLSSLTSEDTAVYYCTTTRWTGSYWGQGTTLTVSS
VL: QIVLTQSPAIMSASPGEKVTITCSASSSVNYMHWFQQKPGSSPKLWIYSTANLASGVPARFSGSGSGTSYSLTISRMEAEDAATYYCQQRSSYPPTWTFGGGTKLEIKR
notes: Anti-LILRB1 antibody
For the molecule B12, the midpoint of the response in [10], the EC50, lay at 0.36 nM.

B13: LK-RB1-5 (antibody, human IgG4 S228P, kappa, V domains shown)
VH: QVQLQQPGAELVKPGASVKLSCKASGYTFTDFWIHWVKQRPGQGLEWIGMIHPNSGSTNFNEKFRAKATLTVDKSSSTAYMRLSSLTSEDSAVYYCARSGDGYSNPMDYWGQGTSVTVSS
VL: QIVLSQSPAILSASPGEKVTLTCRASSSVSYMHWYQQKPGSSPKPWIYATSNLASGVPVRFSGSGSGTSYSLTISRMQTEDAATYYCQQWRRSPYTFGGGTKLEIKR
notes: Anti-LILRB1 antibody
B13: the figures for the concentration for a half-maximal effect (EC50) in test [12] and in test [10] were 1.51 nM and 1.16 nM, respectively.

One may read the Kd as the equilibrium constant for the complex coming apart. Read a low Kd as tighter binding. As a reminder, the koff is the first-order rate constant of dissociation. Read a low koff as a long-lived complex. A word on the kon: it is the rate constant with which the complex forms. A higher kon goes with faster complex formation. Broadly, the EC50 is the midpoint of the concentration-response curve. A lower EC50 goes with an effect from little substance.
